Measured values reported in patent publication US20170183396A1 (published 2017).

T1: ZEBOV GP (Zaire ebolavirus, UniProt Q05320 33-650)
T1 sequence: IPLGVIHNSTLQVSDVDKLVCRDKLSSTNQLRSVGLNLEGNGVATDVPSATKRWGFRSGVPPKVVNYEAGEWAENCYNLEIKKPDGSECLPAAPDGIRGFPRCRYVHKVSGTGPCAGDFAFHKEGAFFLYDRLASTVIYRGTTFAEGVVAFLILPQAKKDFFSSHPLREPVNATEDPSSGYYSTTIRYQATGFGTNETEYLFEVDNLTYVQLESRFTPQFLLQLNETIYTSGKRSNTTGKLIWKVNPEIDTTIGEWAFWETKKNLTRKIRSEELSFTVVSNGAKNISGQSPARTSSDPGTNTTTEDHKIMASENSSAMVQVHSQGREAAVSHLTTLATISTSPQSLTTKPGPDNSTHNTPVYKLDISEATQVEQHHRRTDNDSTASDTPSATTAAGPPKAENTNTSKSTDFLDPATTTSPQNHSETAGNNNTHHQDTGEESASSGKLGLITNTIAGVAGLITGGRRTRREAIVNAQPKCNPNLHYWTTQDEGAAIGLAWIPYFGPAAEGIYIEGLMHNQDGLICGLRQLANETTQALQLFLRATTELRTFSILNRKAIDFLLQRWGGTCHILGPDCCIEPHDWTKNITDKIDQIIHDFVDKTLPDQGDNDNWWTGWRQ

B1: CAN9G1 monoclonal antibody (antibody, V domains shown)
VH: ERQLVESGGGVVKPGESLKLSCAASGFAFSSYDMSWVRQTPEKRLEWVAYSSRGGGFTYYPDTVKGRFTIARDNAKNTLHLQMSSLKSEDTAMYYCATHYYGPLYAMDYWGQGTSVTVSS
VL: QLVLTQSSSASFSLGASAKLTCTLSSQHSTFTIEWYQQQPLKAPKYVMELKKDGSHSTGDGIPDRFSGSSSGADRYLWISNIQPEDEAMYICGVGDTIKEQFVYVFGGGTKVTVL

Legend:
[1] = target: ZEBOV GP (Zaire ebolavirus) (UniProt Q05320); test: affinity for recombinant ZEBOV GP; method not described
ZEBOV GP = target: T1, ZEBOV GP; test: as above

Row | Molecule | Kd [1] [nM] | Kd (ZEBOV GP) [nM]
1 | USAMRIID mAb 13F6 (antibody) | 0.33 | –
2 | B1 | – | 0.27
